US20230060388A1 (SHANGHAI HENLIUS BIOTECH, published 2023)
Residue numbers refer to the chain shown, from its start. Numbers in names are those of the source. Values belong to the binder of their own block, whether it stands above or below them.

Key:
[1] = molecular target: T1, human TIGIT expressed on cells (stably transfected Jurkat cells) (human, UniProt Q495A1 22-244); experiment: flow cytometry on h-TIGIT transfected Jurkat cells, anti-human IgG Fc Alexa Fluor 488
T1 construct: Also used here for TIGIT on primary T cells in the MLR; also called h-TIGIT; T cell immunoreceptor with Ig and ITIM domains
T1 sequence: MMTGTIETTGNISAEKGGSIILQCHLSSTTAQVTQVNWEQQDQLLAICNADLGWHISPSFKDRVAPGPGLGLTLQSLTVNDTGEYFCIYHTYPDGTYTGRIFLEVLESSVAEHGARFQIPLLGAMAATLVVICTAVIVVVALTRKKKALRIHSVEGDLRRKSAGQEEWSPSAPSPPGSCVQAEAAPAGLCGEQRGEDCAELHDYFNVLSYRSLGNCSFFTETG
Description: FIGS. 1A-1C depict whole cell binding of representative VHH bivalent antibodies to human TIGIT determined by flowcytometry assays. […] Y axis represents Mean Fluorescence Intensity of AlexaFlour 488. X axis represents antibody concentrations in nanomolar. 2B7, 1G1, 1C12, 3G6, 2B10, 3G7, 3G10, 13H11, and 15A5 are VHH clones of anti-human TIGIT. FIG. 1C is a schematic of the structure of a TIGIT VHH bivalent antibody.
Binding affinities of the bivalent clones to human TIGIT transfected Jurkat cells were confirmed by flowcytometry assays. Jurkat cells stably expressing human TIGIT and NFAT reporter gene were established. Specifically, Jurkat cells were transfected with human TIGIT expression vector by electroporation, and cells stably expressing human TIGIT were selected by 1 μg/ml puromycin during cell culture. Representative antibody clones were incubated at different concentrations with h-TIGIT stably expressing Jurkat cells (0.2×10^6/ml) in 100 μl/well in 96-well plate in FACS buffer (PBS with 1.5% FBS) for 30 min. After washing, Alexaflour 488 conjugated anti-human IgG Fc secondary antibody (Alexa Fluor® 488 AffiniPure Goat Anti-Human IgG, Fcγ fragment specific, Jackson labs, 1:500 dilution) was added and incubated for 30 min. After washing, mean fluorescence intensity was measured using CytoFlex (Beckman Coulter) by gating live cell population. Binding affinity was calculated using GraphPad Prism.

[2] = molecular target: T2, recombinant human TIGIT extracellular domain (ECD) (human, UniProt Q495A1 22-138); experiment: blocking ELISA, competitor PVR
T2 construct: also called h-TIGIT ECD; recombinant human TIGIT ECD
T2 sequence: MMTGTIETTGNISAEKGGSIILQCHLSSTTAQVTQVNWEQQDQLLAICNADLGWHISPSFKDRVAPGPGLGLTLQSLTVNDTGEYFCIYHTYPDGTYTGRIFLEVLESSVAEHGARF
Experimental: The effects of VHH antibody clones on blocking Poliovirus Receptor (PVR, a.k.a. CD155) binding to TIGIT were also determined using blocking ELISA assay.

[3] = molecular target: T2, recombinant human TIGIT extracellular …; experiment: ELISA on h-TIGIT ECD with VHH samples heated for 60 min at 25 to 70 °C
Experimental: (§1) FIGS. 6A and 6B depict thermostability tested for representative clones. The VHH antibody samples were heated from 25 to 70° C. for 60 min. Binding of heated samples to human TIGIT was examined using ELISA or whole cell binding. […] Y axis represents OD450 obtained from the ELISA assay. X axis represents temperature for the treatment. […] Y axis represents percentage of binding to h-TIGIT. X axis represents temperature for the treatment.
(§2) The thermostability of 12 representative clones was tested by heat treatment at 25 to 70° C. for 60 min, then the binding of the treated samples to human TIGIT was examined using ELISA and whole cell binding flow cytometry assays, the results of which are shown in FIGS. 6A and 6B. […] Bivalent 2A3 antibody (2A3-Fc) was constructed using human IgG1 CH2 and CH3 domains. The antibody was expressed in ExpiCHO cells and purified by protein A column. Epitope of 2A3-Fc binding to human TIGIT was studied using Octet binding assay in comparison with anti-TIGIT reference antibodies Reference Ab 1 and References Ab 2 (a reference anti-human-TIGIT antibody having the same amino acid sequences of Tiragolumab, which was synthesized in-house based on the disclosed sequences in U.S. 2017/0088613 A1). As shown in FIGS. 7A-7C, 2A3 clone bound to a different epitope compared to Reference Ab 1 and Reference Ab 2.

[4] = molecular target: T1, human TIGIT expressed on cells (stably …); experiment: flow cytometry on h-TIGIT Jurkat cells (% binding) with VHH samples heated for 60 min at 25 to 70 °C
Experimental: as §1, §2

[5] = molecular target: T1, human TIGIT expressed on cells (stably …); experiment: whole cell binding, flow cytometry
[6] = molecular target: T3, recombinant ECD of human FcγRIIB (human, UniProt P31994 43-217); experiment: Octet (ForteBio), receptor ECD loaded on the sensor, antibody at 5 concentrations (not given) [h-FcγRIIB binding]
T3 construct: extracellular domain
T3 sequence (looked up): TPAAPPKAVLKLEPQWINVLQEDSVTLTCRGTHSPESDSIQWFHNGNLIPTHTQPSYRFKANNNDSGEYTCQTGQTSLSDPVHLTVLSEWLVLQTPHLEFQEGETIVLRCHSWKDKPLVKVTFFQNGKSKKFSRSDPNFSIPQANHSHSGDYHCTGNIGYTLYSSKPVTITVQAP
Description: (§3) FIG. 12 depicts binding of 2A3-LT-Fc wild type (wt) and Fc mutations (DLE and VLPLL) to human FcγRIIIA, human FcγRIIB and mouse FcγRIV determined using Octet binding assay. Sensors were loaded with recombinant proteins of ECDs of FcγRIIIA, human FcγRIIB and mouse FcγRIV, association and dissociation of 2A3-LT-Fc wt, DLE or VLPLL mutants at 5 different concentrations were detected using ForteBio. Y axis represents association, dissociation & Rmax. X axis represents time in second. Both DLE and VLPLL mutants had enhanced binding affinity to human FcγRIIIA compared to that of wild type, DLE mutant also had enhanced binding affinity to human FcγRIIB, however VLPLL mutant reduced binding affinity to human FcγRIIB All versions had similar affinity to mouse FcγRIV.

[7] = molecular target: T4, recombinant ECD of mouse FcγRIV (mouse, UniProt A0A0B4J1G0 21-203); experiment: Octet (ForteBio), receptor ECD loaded on the sensor, antibody at 5 concentrations (not given) [m- FcγRIV binding]
T4 sequence: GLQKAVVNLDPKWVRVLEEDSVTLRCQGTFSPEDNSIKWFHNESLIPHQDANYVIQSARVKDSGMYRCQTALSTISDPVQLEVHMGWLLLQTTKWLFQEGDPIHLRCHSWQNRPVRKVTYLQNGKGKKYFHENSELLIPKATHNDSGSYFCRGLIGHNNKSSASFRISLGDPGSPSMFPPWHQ
Description: as §3

[8] = molecular target: T1, human TIGIT expressed on cells (stably …); experiment: cell-based or functional assay
[9] = molecular target: human FcγRIIIA expressed on transfected Jurkat cells (human, UniProt P08637 17-254); experiment: cell-based or functional assay
Chain of human FcγRIIIA expressed on transfected Jurkat cells (P08637 17-254): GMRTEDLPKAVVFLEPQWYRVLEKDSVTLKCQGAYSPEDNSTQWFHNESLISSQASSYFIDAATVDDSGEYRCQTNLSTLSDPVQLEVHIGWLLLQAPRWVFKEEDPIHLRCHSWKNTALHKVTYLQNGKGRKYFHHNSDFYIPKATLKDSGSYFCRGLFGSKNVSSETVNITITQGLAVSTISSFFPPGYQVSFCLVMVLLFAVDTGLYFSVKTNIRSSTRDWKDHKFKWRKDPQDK

- EC50 (read off the curve) [1]: ~800 pM
B1: 3G6 bivalent VHH antibody (Fc fusion, not shown: small tags and cut ends)
chain: QVQLVESGGGLVQAGGSLSLSCAASGSIFGISVMGWYRQAPGEQRDLVATLTRAGLTTYGDSVKGRFSISRDSAKNTVYLQMNNLKPEDTAVYYCHANIMESAASTFGRYWGQGTQVTVSS

- inhibition of PVR binding to h-TIGIT [2]: > 90%
B2: 3F10 VHH (VHH)
VHH: QVQLVESGGGLVQAGGSLRLSCASSEHTFSNFPMGWFRQAPGKERNVVAAIDSSGRLTYYADSVKGRFTISKDNAKSTVYLQMNSLKSEDTARYYCAARTGGVGYYSRSSFYNYWGQGTLVTVSS
notes: VHH in E. coli supernatant

- EC50 (read off the curve) [1]: ~200 pM
B3: 13H11 bivalent VHH antibody (Fc fusion, not shown: small tags and cut ends)
chain: QVQLVESGGGLVQAGGSLRLSCAASGLTFSMYAMGWFRQGPGKERESVAAISSDGRFTYYAASVKGRFTISKDNAKSAAFLQMNSLKPEDTAVYYCAARDSGSGYYSRAQWYDYWGQGTQVTVSS

- binding result [3]: binds
- binding result [4]: binds
B4: 1A8 VHH (VHH)
VHH: QVQLVESGGGVVQPGRSLRLSCAASGPSFSSYPMGWFRQAPGKERESVAAISSRGRFTYYADSVKGRFTISRDNSKNTLYLQMNSLRAEDTAVYYCAARDSGSGYYSRAQWYDYWGQGTLVTVSS

- binding result [3]: binds
- binding result [4]: binds
B5: 7F6 VHH (VHH)
VHH: B4 VHH with S28M, R54D, G55P

- binding result [5]: binds
B6: 2A3 ML_DE (hotspot modified 2A3) (VHH)
VHH: B4 VHH with P27G, R54D, G55L, D100E, S103V

- binding result [5]: binds
B7: 2A3 ML (hotspot modified 2A3) (VHH)
VHH: B4 VHH with P27G, R54D, G55L, S103V

- binding result [5]: binds
B8: 2A3 MI (hotspot modified 2A3) (VHH)
VHH: B4 VHH with P27G, R54D, G55I, S103V

- binding result [3]: binds
- binding result [4]: binds
B9: 6F12 VHH (VHH)
VHH: B4 VHH with S30T, R54D, T58K, R99E

- EC50 (read off the curve) [1]: ~60 pM
B10: 15A5 bivalent VHH antibody (Fc fusion, not shown: small tags and cut ends)
chain: QVQLVESGGGLVQAGGSLRLSCAASERTFSSFAMGWFRQAPGKEREVVAAIDPSGRYIYYKDSVKGRFTMSRDNAKSTVYLQMNSLKPDDTARYYCAARIRGEGYYTRSSFYHYWGQGTQVTVSS

- inhibition of PVR binding to h-TIGIT [2]: > 90%
B11: 15A5 VHH (VHH)
VHH: B10 chain
notes: VHH in E. coli supernatant

- binding result [6]: binds
- binding result [7]: binds
B12: 2A3-LT-Fc VLPLL (Fc mutations L235V, F243L, R292P, Y300L, P396L) (Fc fusion)
chain: QVQLVESGGGVVQPGRSLRLSCAASGGSFSSYPMGWFRQAPGKERESVAAISSDLRFTYYADSVKGRFTISRDNSKNTLYLQMNSLRAEDTAVYYCAARTSGVGYYSRAQWYDYWGQGTLVTVSSEPKSCDKTHTCPPCPAPELVGGPSVFLLPPKPKDTLMISRTPEVTCVVVDVSHEDPEVKFNWYVDGVEVHNAKTKPPEEQYNSTLRVVSVLTVLHQDWLNGKEYKCKVSNKALPAPIEKTISKAKGQPREPQVYTLPPSREEMTKNQVSLTCLVKGFYPSDIAVEWESNGQPENNYKTTPLVLDSDGSFFLYSKLTVDKSRWQQGNVFSCSVMHEALHNHYTQKSLSLSPGK
notes: also called VLPLL mutant; VPVLL (as misprinted)

- EC50 (nM), TIGIT blockade NFAT reporter, Average [8]: 0.97 nM
- EC50 (nM), TIGIT blockade NFAT reporter, Exp 1 [8]: 0.67 nM
- EC50 (nM), TIGIT blockade NFAT reporter, Exp 2 [8]: 0.92 nM
- EC50 (nM), TIGIT blockade NFAT reporter, Exp 3 [8]: 1.32 nM
- EC50 (nM), FcγRIIIA-mediated NFAT reporter, Average [9]: 0.024 nM
- EC50 (nM), FcγRIIIA-mediated NFAT reporter, Exp 1 [9]: 0.027 nM
- EC50 (nM), FcγRIIIA-mediated NFAT reporter, Exp 2 [9]: 0.0295 nM
- EC50 (nM), FcγRIIIA-mediated NFAT reporter, Exp 3 [9]: 0.018 nM
- EC50 (nM), FcγRIIIA-mediated NFAT reporter, Exp 4 [9]: 0.02 nM
- binding result [6]: binds
- binding result [7]: binds
B13: 2A3-LT-Fc-DLE (Fc mutations S239D, A330L, I332E) (Fc fusion)
chain: B12 chain with V145L, S149D, L153F, P202R, L210Y, A240L, I242E, L306P
notes: I332E is printed as 1332E; also called DLE mutant
